From paper PMC5948177 (Science (New York, N.Y.), 2018)

Key:
cryo-EM structure = molecular target: the molecule itself; assay: cryo-EM structure
[1] = molecular target: T1, a-subunit of the yeast ATP synthase Fo (yeast (strain W303-1A background), UniProt P00854 11-259); assay: cryo-EM structure
T1 sequence (looked up): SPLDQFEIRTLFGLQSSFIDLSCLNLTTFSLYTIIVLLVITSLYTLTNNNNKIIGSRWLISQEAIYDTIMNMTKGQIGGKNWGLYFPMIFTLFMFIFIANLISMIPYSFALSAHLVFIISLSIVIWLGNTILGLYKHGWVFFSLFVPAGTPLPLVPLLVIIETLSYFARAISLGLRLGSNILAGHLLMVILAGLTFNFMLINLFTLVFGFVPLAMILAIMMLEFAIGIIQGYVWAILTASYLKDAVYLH

B1: c-subunit of the yeast ATP synthase Fo (c10-ring) (natural protein, yeast (strain W303-1A background), UniProt P61829 1-76, looked up)
chain: MQLVLAAKYIGAGISTIGLLGAGIGIAIVFAALINGVSRNPSIKDTVFPMAILGFALSEATGLFCLMVSFLLLFGV
cryo-EM structure
  stoichiometry N: 10
[1]
  binding result: binds
